Source: patent publication EP4631959A2, “NOVEL MINIGASTRIN-DERIVED CHOLECYSTOKININ 2 RECEPTOR BINDING MOLECULES FOR IMAGING AND TARGETED RADIOTHERAPY” (priority 2022, dated 2024)
Where two headings read alike, the source gives them in different places. Starred links: 1 amine or outer side, 2 acyl side, 3 side chain; linkers in the order of their positions; H or OH if unused. Non-standard residues stand in square brackets, D forms with d. Residues, ends and D or L forms follow the SMILES beside them. *: point of attachment. Benzoyl(4-SiFtBu2) = CC(C)(C)[Si](F)(c1ccc(C(=O)*)cc1)C(C)(C)C; DOTA = O=C(O)CN1CCN(CC(=O)O)CCN(CC(=O)*)CCN(CC(=O)O)CC1; d(γGlu) = O=C(O)[C@@H](CCC(=O)[*:2])N[*:1]; 1Nal = N[C@@H](Cc1cccc2ccccc12)C(=O)O; Hyp = O=C(O)[C@@H]1C[C@@H](O)CN1; NMeNle = CCCC[C@H](NC)C(=O)O; PEG4 = NCCOCCOCCOCCOCCC(=O)O; dDap = NC[C@@H](N)C(=O)O

How the values were obtained:
[1] = molecular target: T1, Human serum albumin (HSA) (Homo sapiens, UniProt P02768); assay: Determination of HSA binding on a Chiralpak HSA column; type: in vitro ADME; conditions: Tab. 8; metal not stated (Fig. 18: ^natLu)
T1 construct: purchased Daicel, Tokyo, Japan H13H-2433
Procedure, shortened: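 Retention on an HSA column with a 50 mM NH4OAc (pH 6.9)/isopropanol gradient at 0.5 mL/min, rt; samples run at 0.5 mg/mL in A/B (1/1). Binding derived by non-linear regression against nine reference compounds spanning 13 to 99% HSA binding.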

CCK-2R [2] = assay: Competition studies in AR4-2J tumor-bearing CB17-SCID mice; type: in vivo; conditions: co-administration of excess unlabeled competitor (40 nmol), 24 h p.i.
Protocol: For competition studies, the radiolabeled compound (approx. 1-5 MBq, 100 pmol) was co-injected with [^natLu]Lu-DOTA-MGS5 (40 nmol) into the tail vein of AR4-2J tumor-bearing CB17-SCID mice and sacrificed at 1 to 24 h post injection (n = 2). Selected organs were removed, weighted and measured in a γ-counter.

[3] = In vivo stability studies in murine serum and urine; parameters: species or system CB17-SCID mice; conditions: 30 min p.i.
Protocol: Stability studies were performed via injection of the ^177Lu-labeled peptide (approx. 35 MBq, 1 nmol) into the tail vein (n = 3) of anesthetized (2% isoflurane) CB17-SCID mice. At 30 min p.i. the mice were euthanized and a urine as well as a blood sample were taken. The urine sample was analyzed without further treatment. The blood sample was centrifuged at 5,000 rpm for 2 min. Afterwards, the serum was collected and ice-cold MeCN (1:1, v/v) as well as EtOH (1:2, v/v) were added. The sample was centrifuged at 5,000 rpm for 2 min once more and the supernatant was analyzed via RP-HPLC (10→30% in 5 min, 30→60% in 15 min, MeCN/H2O + 0.1% TFA).

CCK-2R [4] = molecular target: T2, CCK-2R (Rattus norvegicus, UniProt P30553); assay: Determination of IC50: CCK-2R affinity on AR4-2J cells, competition with [^177Lu]Lu-DOTA-PP-F11N; type: binding; conditions: AR4-2J cells
T2 construct: The CCK-2R expressing rat pancreatic tumor cells AR4-2J; host or cells: AR4-2J rat pancreatic tumor cells
T2 sequence (P30553 1-452): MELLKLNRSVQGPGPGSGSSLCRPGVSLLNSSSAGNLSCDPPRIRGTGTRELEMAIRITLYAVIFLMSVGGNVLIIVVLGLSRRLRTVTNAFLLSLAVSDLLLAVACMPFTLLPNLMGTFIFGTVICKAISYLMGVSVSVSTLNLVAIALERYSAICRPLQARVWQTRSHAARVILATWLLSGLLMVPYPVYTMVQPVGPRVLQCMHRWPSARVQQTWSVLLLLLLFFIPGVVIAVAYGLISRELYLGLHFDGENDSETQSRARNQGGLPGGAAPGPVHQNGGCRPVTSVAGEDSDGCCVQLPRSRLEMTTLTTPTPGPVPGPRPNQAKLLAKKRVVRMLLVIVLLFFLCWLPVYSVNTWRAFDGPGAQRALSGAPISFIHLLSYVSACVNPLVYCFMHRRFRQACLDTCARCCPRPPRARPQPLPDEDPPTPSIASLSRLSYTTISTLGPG
Procedure, shortened: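 Competitive displacement of 0.3 pmol/well [177Lu]Lu-DOTA-PP-F11N by compounds (10^-10 to 10^-4 M) on AR4-2J cells in BSA-supplemented medium, 3 h at 37 °C. Free label was collected from medium plus PBS rinse, and cell-bound label was recovered with 1 M NaOH, both measured by γ-counter. Each IC50 was determined twice, in triplicate.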

[5] = n-Octanol-PBS distribution coefficient (logD7.4); type: physicochemical; conditions: pH = 7.4, ^177Lu-labeled
Protocol: Approximately 1 MBq of the labeled tracer was dissolved in 1 mL of a 1/1 mixture (v/v) of phosphate buffered saline (PBS, pH = 7.4) and n-octanol in an Eppendorf tube (1.5 mL). After vigorous mixing of the suspension for 3 min at rt, the vial was centrifuged at 9,000 rpm for 5 min (Biofuge 15, Heraeus Sepatech, Osterode, Germany) and 200 µL aliquots of both layers were measured in a γ-counter. The experiment was repeated at least five times.

T1 sequence (P02768 25-609): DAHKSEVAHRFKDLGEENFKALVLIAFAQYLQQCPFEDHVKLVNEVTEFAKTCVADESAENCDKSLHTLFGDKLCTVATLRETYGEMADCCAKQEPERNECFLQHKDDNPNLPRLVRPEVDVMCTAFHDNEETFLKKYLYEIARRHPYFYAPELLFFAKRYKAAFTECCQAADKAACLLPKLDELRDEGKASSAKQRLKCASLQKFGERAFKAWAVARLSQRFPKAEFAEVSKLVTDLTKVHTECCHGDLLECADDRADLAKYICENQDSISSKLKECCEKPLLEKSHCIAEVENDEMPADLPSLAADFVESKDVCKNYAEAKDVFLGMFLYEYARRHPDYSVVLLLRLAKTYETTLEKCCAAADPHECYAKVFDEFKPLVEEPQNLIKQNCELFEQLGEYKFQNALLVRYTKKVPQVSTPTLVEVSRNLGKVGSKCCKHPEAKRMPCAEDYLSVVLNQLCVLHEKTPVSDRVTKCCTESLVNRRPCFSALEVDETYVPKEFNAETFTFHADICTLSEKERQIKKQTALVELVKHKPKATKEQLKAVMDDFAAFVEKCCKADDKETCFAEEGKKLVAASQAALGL

Structure (SMILES): CCCC[C@@H](C(=O)N[C@@H](CC(=O)O)C(=O)N[C@@H](Cc1cccc2ccccc12)C(N)=O)N(C)C(=O)[C@H](Cc1c[nH]c2ccccc12)NC(=O)CCOCCOCCOCCOCCNC(=O)CC[C@@H](NC(=O)[C@@H]1C[C@@H](O)CN1C(=O)[C@@H]1C[C@@H](O)CN1C(=O)[C@@H]1C[C@@H](O)CN1C(=O)[C@@H]1C[C@@H](O)CN1C(=O)[C@@H]1C[C@@H](O)CN1C(=O)[C@@H]1C[C@@H](O)CN1C(=O)CC[C@@H](NC(=O)[C@@H](CNC(=O)c1ccc([Si](F)(C(C)(C)C)C(C)(C)C)cc1)NC(=O)CN1CCN(CC(=O)O)CCN(CC(=O)O)CCN(CC(=O)O)CC1)C(=O)O)C(=O)O [DOTA-rhCCK-84, DOTA-dap(SiFA)-γ-glu-(Hyp)6-γ-glu-(PEG)3-Trp-(N-Me)Nle-Asp-1-Nal-NH2] ({DOTA}-[dDap](Benzoyl(4-SiFtBu2))[d(γGlu)][Hyp][Hyp][Hyp][Hyp][Hyp][Hyp][d(γGlu)][PEG4]W[NMeNle]D[1Nal]-NH2)
- HSA binding [%] [1]: 90.0%
- activity levels in stomach and tumor in competition studies (CCK-2R specificity) (CCK-2R [2]): significantly decreased activity levels in both stomach and tumor
- in vivo stability in the serum (intact compound) ([3]; murine serum): 93.5 ± 2.1%
- in vivo stability in the urine (intact compound) ([3]; murine urine): 55.4 ± 9.0%
- IC50 (CCK-2R [4]; read-out: IC50 [nM] (n = 3), ^natGa-labeled, ^natGa-labeled): 27.7 ± 3.1 nM
- IC50 (CCK-2R [4]; read-out: IC50 [nM] (n = 3), ^natLu-labeled, ^natLu-labeled): 7.87 ± 0.3 nM
- logD7.4 (n ≥ 5), ^177Lu-labeled [5]: -2.14 ± 0.06
- logD7.4 (n ≥ 5), ^177Lu-labeled ([5]; listed as [^nat/177Lu]Lu-DOTA-rhCCK-84): -2.14 ± 0.06
